The source of these data is patent publication US20220056139A1 (UNIVERSITY OF SOUTHERN CALIFORNIA, published 2022).

Some results are limits rather than exact numbers.

The assay has as its target HLA-DR (human). Nature of the assay: cell-based or functional assay.

B1: huLym-1-B-DAP CAR (Experiment 3, with 261 tag) (receptor)
chain: EVQLVESGGGLVQPGRSLRLTCTASGFSLTSYGVHWVRQPPGKGLEWLAVIWSDGSTTYNSALKSRLTISKDNSKSQVYLQMNSLRAEDTAVYYCARHYGSTLAFASWGQGTLVTVSSGGGGSGGGGSGGGGSDIQMTQSPSSLSASVGDRVTITCRASVNIYSYLAWYQQKPGKAPNLLIYNAKILAEGVPSRFSGSGSGTDFTLTISSLQPEDFASYYCQHHYGTFTFGQGTKVEIKAVPPQQWALSTTTPAPRPPTPAPTIASQPLSLRPEACRPAAGGAVHTRGLDFACDIYIWAPLAGTCGVLLLSLVITLYCLCARPRRSPAQDGKVYINMPGRGYFLGRLVPRGRGAAEAATRKQRITETESPYQELQGQRSDVYSDLNTQRPYYK
Turning to B1, the “killing of Raji cells at 2:1 effector to target ratio, overnight co-culture” value was roughly 80%.

B2: huLym-1-B-BB3z CAR (receptor)
chain: EVQLVESGGGLVQPGRSLRLTCTASGFSLTSYGVHWVRQPPGKGLEWLAVIWSDGSTTYNSALKSRLTISKDNSKSQVYLQMNSLRAEDTAVYYCARHYGSTLAFASWGQGTLVTVSSGGGGSGGGGSGGGGSDIQMTQSPSSLSASVGDRVTITCRASVNIYSYLAWYQQKPGKAPNLLIYNAKILAEGVPSRFSGSGSGTDFTLTISSLQPEDFASYYCQHHYGTFTFGQGTKVEIKAVPPQQWALSTTTPAPRPPTPAPTIASQPLSLRPEACRPAAGGAVHTRGLDFACDIYIWAPLAGTCGVLLLSLVITLYCKRGRKKLLYIFKQPFMRPVQTTQEEDGCSCRFPEEEEGGCELRVKFSRSADAPAYKQGQNQLYNELNLGRREEYDVLDKRRGRDPEMGGKPRRKNPQEGLYNELQKDKMAEAYSEIGMKGERRRGKGHDGLYQGLSTATKDTYDALHMQALPP
For B2, the “fold expansion of CAR T cells from days 7-14” value is less than 4 fold.
